# Test results as given in patent US20080274950A1 (BABRAHAM INSTITUTE, published 2008).
# T1: full length chicken N-cadherin with the N-terminus extended by two glycine residues (GG) expressed on K562 … (chicken, UniProt P10288 165-912)
# T1 construct: whole, on cells; also called cells expressing the GG N-terminal extension mutant; K562 GG
# T1 sequence: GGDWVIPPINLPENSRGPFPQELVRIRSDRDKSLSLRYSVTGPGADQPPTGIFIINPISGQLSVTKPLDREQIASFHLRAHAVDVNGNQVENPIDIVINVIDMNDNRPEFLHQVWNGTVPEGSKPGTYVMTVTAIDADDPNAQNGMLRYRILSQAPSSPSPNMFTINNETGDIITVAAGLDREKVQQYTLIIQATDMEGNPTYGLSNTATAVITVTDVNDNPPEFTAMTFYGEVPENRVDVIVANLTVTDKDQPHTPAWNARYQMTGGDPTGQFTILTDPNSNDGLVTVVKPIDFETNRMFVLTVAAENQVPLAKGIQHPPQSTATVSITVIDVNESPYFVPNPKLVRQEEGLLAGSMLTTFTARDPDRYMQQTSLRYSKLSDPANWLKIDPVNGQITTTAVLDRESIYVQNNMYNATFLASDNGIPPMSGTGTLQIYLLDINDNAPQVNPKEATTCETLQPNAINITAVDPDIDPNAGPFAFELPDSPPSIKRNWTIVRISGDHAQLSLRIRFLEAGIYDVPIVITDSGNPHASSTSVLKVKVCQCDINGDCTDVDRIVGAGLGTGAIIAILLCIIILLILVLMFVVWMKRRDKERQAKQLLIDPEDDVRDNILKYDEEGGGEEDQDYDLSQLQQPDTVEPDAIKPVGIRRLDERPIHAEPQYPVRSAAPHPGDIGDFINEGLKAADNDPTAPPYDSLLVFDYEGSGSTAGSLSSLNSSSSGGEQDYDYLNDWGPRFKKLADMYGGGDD
# T2: wild type full length chicken N-cadherin expressed on stably transfected K562 cells (chicken, UniProt P10288 165-912)
# T2 construct: whole, on cells; also called K562 transfectants (Wt); wild type cells
# T2 sequence (looked up): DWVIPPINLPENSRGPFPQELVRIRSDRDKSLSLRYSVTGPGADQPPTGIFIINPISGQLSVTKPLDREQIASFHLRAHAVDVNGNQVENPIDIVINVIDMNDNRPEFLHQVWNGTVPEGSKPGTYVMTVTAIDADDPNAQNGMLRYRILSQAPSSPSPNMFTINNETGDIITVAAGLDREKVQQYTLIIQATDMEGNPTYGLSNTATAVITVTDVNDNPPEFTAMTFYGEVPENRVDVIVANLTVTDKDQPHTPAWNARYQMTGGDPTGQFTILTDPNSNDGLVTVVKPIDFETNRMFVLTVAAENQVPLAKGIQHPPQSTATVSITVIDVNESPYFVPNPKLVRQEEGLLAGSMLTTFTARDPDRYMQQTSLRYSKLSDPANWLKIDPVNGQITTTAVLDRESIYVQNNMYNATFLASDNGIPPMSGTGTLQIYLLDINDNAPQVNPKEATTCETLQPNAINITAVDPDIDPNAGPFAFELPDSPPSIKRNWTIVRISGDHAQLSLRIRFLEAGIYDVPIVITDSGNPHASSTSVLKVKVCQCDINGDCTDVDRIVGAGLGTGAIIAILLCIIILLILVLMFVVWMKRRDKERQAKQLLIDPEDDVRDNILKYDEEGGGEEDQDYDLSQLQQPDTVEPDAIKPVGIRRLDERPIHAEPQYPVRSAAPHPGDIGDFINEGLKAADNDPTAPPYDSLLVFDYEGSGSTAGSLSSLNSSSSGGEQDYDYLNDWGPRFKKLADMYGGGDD
# T3: full length chicken N-cadherin with the mutation E89A expressed on K562 cells (chicken, UniProt P10288 165-912, E89A)
# T3 construct: whole, on cells; also called cells expressing the E89A mutation; K562 E89A
# T3 sequence (looked up): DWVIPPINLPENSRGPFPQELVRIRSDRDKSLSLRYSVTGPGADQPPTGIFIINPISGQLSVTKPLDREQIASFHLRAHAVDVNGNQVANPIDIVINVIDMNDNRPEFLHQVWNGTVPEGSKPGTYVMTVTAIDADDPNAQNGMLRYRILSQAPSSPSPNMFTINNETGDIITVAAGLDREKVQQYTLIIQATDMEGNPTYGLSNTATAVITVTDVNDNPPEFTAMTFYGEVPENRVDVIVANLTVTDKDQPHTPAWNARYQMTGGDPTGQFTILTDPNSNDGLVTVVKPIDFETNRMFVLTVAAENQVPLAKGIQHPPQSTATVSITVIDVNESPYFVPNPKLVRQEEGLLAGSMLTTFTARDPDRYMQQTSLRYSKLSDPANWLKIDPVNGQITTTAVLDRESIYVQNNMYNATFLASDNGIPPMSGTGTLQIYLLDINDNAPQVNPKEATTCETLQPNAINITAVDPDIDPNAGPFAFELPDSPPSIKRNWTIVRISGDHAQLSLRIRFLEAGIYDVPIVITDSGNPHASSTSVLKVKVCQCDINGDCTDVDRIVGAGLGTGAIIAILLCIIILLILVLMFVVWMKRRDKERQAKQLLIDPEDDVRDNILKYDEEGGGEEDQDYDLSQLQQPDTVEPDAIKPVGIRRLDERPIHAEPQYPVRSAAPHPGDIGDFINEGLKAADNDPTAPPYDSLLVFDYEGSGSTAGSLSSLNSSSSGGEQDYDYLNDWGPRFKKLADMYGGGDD
# Key:
# Experiment in all cases: adhesion of K562 transfectants to coated N-cadherin Fc
# [1] = biological target: T1, full length chicken N-cadherin with the …
# In short: (§1)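 K562 (or L) cells transfected with wild-type or mutant N-cadherin settled 45 min at 37 °C onto N-cadherin Fc coated at 1 µg/ml. After non-adherent cells were washed off, bound cells were quantified by acid phosphatase activity. Values are % cells adhering ± SEM, quadruplicate.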
# [2] = biological target: T2, wild type full length chicken …
# In short: as §1
# [3] = biological target: T3, full length chicken N-cadherin with the …
# In short: as §1
binder,measurement,setting,value
"chicken N-cadherin-Fc fusion protein with the mutation D134A, dimeric (Fc fusion, UniProt P10288 165-728, looked up, extracellular domain; also called D134A mutant; N-cadherin Fc mutant D134A; not shown: hinge region, CH2 and CH3 domains of human IgG1 heavy chain (vector pIgSig)) DWVIPPINLPENSRGPFPQELVRIRSDRDKSLSLRYSVTGPGADQPPTGIFIINPISGQLSVTKPLDREQIASFHLRAHAVDVNGNQVENPIDIVINVIDMNDNRPEFLHQVWNGTVPEGSKPGTYVMTVTAIAADDPNAQNGMLRYRILSQAPSSPSPNMFTINNETGDIITVAAGLDREKVQQYTLIIQATDMEGNPTYGLSNTATAVITVTDVNDNPPEFTAMTFYGEVPENRVDVIVANLTVTDKDQPHTPAWNARYQMTGGDPTGQFTILTDPNSNDGLVTVVKPIDFETNRMFVLTVAAENQVPLAKGIQHPPQSTATVSITVIDVNESPYFVPNPKLVRQEEGLLAGSMLTTFTARDPDRYMQQTSLRYSKLSDPANWLKIDPVNGQITTTAVLDRESIYVQNNMYNATFLASDNGIPPMSGTGTLQIYLLDINDNAPQVNPKEATTCETLQPNAINITAVDPDIDPNAGPFAFELPDSPPSIKRNWTIVRISGDHAQLSLRIRFLEAGIYDVPIVITDSGNPHASSTSVLKVKVCQCDINGDCTDVDRIVGAGLGT",binding result,[1],no binding (tested: Fc fusion protein coated at 1 µg/ml)
same,binding result,[2],no binding (tested: Fc fusion protein coated at 1 µg/ml)
same,binding result,[3],no binding (tested: Fc fusion protein coated at 1 µg/ml)
